Publication PMC4569712, “IRTKS negatively regulates antiviral immunity through PCBP2 sumoylation-mediated MAVS degradation” (Nature Communications, 2015)

Target: T1, Recombinant GST-IRTKS (mouse, UniProt Q9DBJ3 1-514)
T1 construct: IRTKS, cloned from a murine bone marrow library, subcloned into pGEX-6p-1; also called recombinant IRTKS; source: E. coli (pGEX-6p-1), recombinant
T1 sequence (looked up): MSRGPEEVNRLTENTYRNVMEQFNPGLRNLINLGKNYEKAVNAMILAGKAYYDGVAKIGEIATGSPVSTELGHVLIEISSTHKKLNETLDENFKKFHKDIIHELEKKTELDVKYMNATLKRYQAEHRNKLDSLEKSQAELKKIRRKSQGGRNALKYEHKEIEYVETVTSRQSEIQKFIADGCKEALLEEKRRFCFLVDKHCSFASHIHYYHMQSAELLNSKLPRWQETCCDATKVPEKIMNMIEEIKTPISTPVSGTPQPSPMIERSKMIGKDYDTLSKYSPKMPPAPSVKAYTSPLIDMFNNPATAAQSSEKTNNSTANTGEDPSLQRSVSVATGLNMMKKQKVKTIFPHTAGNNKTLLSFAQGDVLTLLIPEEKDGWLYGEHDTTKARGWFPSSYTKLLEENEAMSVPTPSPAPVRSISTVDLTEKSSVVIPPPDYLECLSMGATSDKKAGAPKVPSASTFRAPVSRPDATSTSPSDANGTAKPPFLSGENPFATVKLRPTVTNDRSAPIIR
Assay: pull-down; GST pull-down: recombinant GST-tagged IRTKS or its truncations incubated with the recombinant partner
Conditions: both partners purified

B1: Recombinant PCBP2 (natural protein, mouse, UniProt Q61990 1-362, looked up)
chain: MDTGVIEGGLNVTLTIRLLMHGKEVGSIIGKKGESVKKMREESGARINISEGNCPERIITLAGPTNAIFKAFAMIIDKLEEDISSSMTNSTAASRPPVTLRLVVPASQCGSLIGKGGCKIKEIRESTGAQVQVAGDMLPNSTERAITIAGIPQSIIECVKQICVVMLESPPKGVTIPYRPKPSSSPVIFAGGQDRYSTGSDSASFPHTTPSMCLNPDLEGPPLEAYTIQGQYAIPQPDLTKLHQLAMQQSHFPMTHGNTGFSGIESSSPEVKGYWAGLDASAQTTSHELTIPNDLIGCIIGRQGAKINEIRQMSGAQIKIANPVEGSTDRQVTITGSAASISLAQYLINVRLSSETGGMGSS
notes: PCBP2, cloned from a murine bone marrow library; source: recombinant (E. coli constructs in pGEX-6p-1 and pET-28a are described)
- binding result: binds
